Assay: soluble on expression in E. coli; label from the status in PepcDB or PDB records

Sequence: MRKMADPLVPKEALEWFKSKGIKPGFDYRDVWKEEQANAFTVAKMLNADLLVEVKQLVEDAIGQGQTFEQFRDILKPLLVKSGWWGVQTMQDPLTDETKLVQLGSEGRIKTIYKTNMRTARSAGQWERIQRTKRTMPYLLYQLGPSEQHRIEHLKWNNTLLPADDPWWDVHMTPNGWGCKCWIRQVSQYEADKLIAAGTVKTTVPASKNKQWVNRRTGEVEVLPEGIDPGWNYNPGKNREKMLAADLALKESRMRQTLANGS
- soluble on expression in E. coli: soluble

Sequence: MKVGSQVIINTSHMKGMKGAEATVTGAYDTTAYVVSYTPTNGGQRVDHHKWVIQEEIKLEHHHHHH
- soluble on expression in E. coli: not soluble

Sequence: MARPKTQSERMIILERIIGLVKEQGRITTNDVVAIFGVHRTTAEKYLRIALERGGFIRHGRCGIFRDQRAVIDYDLRRYSSSQVTGFSALPVLEKSPVMQVYGASKMSINKGGAQ
- soluble on expression in E. coli: not soluble

Sequence: MIVYGLYKSPFGPITVAKNEKGFVMLDFCDCAERSSLDNDYFTDFFYKLDLYFEGKKVDLTEPVDFKPFNEFRIRVFKEVMRIKWGEVRTYKQVADAVKTSPRAVGTALSKNNVLLIIPCHRVIGEKSLGGYSRGVELKRKLLELEGIDVAKFIEK
- soluble on expression in E. coli: soluble

Sequence: MHFKRVVKWGLNMYQNQRIKDKINILGVNFDNTTMLEMLENIKQFISSNTDDNLFIVTANPEIVDYATEHELYRNLINQADYVVPDGTGIVKASKRLKQPLKRRVPGIELLEECLKIAHVSHQRVYLLGSKNEIVETAEKKLQSQYPNIHFAHHHGYIHLEDETVIKRITSFNPDYIFVGMGFPKQEQWIQKHKDKFKHTVMMGVGGSFEVFSGSKKRAPQIFRKLNIEWVYRVLIDWKRIGRMISIPKFMLKVAIQKYKMKSK
- soluble on expression in E. coli: not soluble

Sequence: MAHHHHHHMSSETPRASTHDVFCAALQMLGGAQIFAQPLIQRTAVASLSPRSRNGNQASAVIAESATSRDAGTNHLPDPGIDVDAKPVDKPCCRGEQPCERTGTAPVKAMVTLCDPPARCEGVLAAQNAQRRLHHLRFFGGRFFLADGVTASESQQTSGYASTATSNAHVSDDCSSTWELKASYFQAMKETLTAVMGRRLRSQLLCDDSTADTGTVLRAPVPRGATGASTMTTSARQAALRRRMEAFTSAVVHQESILDAVAAACRARLNTVGGATAAPTPCFFFSALPQISVRQWAGSHLYKHWLVRCGTPRASLPSTATNPQKSGPHGAPMLTSPSAPRAPATALVLPLDVEAELRKYWKLHDEAAARARLEALRCNDAQAFAEHVSLLKVSALLEIMEKTEGFMRRIGLRLQFHATQAAANRGGDGARAVPTTRAAPAALAEPGIADRPGGAAGCHGSEYERFRSYVASTKNEFKLMHRVDVFVAAQPAGLDATLLPHQMDGLRFLASLDANHINGILADEMGVGKTIQTLAFLLYLKNRRGETGETGEGSGGRVAPPRVGSRLPHLVLAPLSVVREWREACEQFVPSALHVAMYQELADPVHEAAAYDLVLLPVHAIRYVGAEAARIQWHYIVVDEAHKAVANLSTITAQRILRPLVFAPPGADWNAAQQRLAGALVAAALSESGGVHRQ
- soluble on expression in E. coli: not soluble

Sequence: MGSDKIHHHHHHMLTCNGSKTFQTFIKAVTDLINSNLLEDQMVCGIEKLLEELLEKKTWLPLEKQKANSAQYARHLLYEDPLNRFEVLALVWKDGQSTPLHDHDGTWGVEGVFTGRIMVQNFIQTKQLENSLVYLTHTGNLYLGEGETDKVIPPADCHILEIDDNESVVTIHVYGKRLEKFKVYVPTKEKNVYTCETKYIRYNS
- soluble on expression in E. coli: not soluble

Sequence: VFALSNNLNRVNACMDGFLARIRSHVDAHAPELRSLFDTMAAEARFARDWLSEDLARLPVGAALLEVGGGVLLLSCQLAAEGFDITAIEPTGEGFGKFRQLGDIVLELAAARPTIAPCKAEDFISEKRFDFAFSLNVMEHIDLPDEAVRRVSEVLKPGASYHFLCPNYVFPYEPHFNIPTFFTKELTCRVMRHRIEGNTGMDDPKGVWRSLNWITVPKVKRFAAKDATLTLRFHRAMLVWMLERALTDKEFAGRRAQWMVAAIRSAVKLRVHHLAGYVPATLQPIMDVRLTKR
- soluble on expression in E. coli: not soluble

Sequence: MGSDKIHHHHHHMFDVCLFKKMNILYATCFLDVSGVTRLNYDILARLAGKNNIYVCETASDGRLTSKLENHFRDSFGEPFKLFRYPLQDRYRRFLEYLDSNAIDLVFNTHSLWVYEHIAKLKKDRSNLKVVDSLHVLEPYCFRGGYPDISANRYVHPFIDKSIVISEHLLSYIKRSYSVDPGKFIIIRNGVDTTRFKKDSSLKGIFRNELGVPANFPLIGYIGRFSRQKRPDVFLDVAKHLLGKLGEVYFYMAGDGDLLDKSKKLADSLGISNRVSFVAPRDDIHIVLNSTDMLVLTSSYEGAPLTILEALATGVPVVASDVGAISEYVGTPYVVQRQGRGAEVDQFAEAILRGLNDNYPSIFDREIFSLDYVADSYARVFYDTAVRTSTTQEN
- soluble on expression in E. coli: not soluble

Sequence: MSPTSRPATGASLSAARRSREVADTVGGPVVDVLVVGLGATGAGAALDAAARGLGVVAVDAHDLAFGTSRWSSKLIHGGLRYLASGQLDVAHESAVERGVLMERTAPHLVRAQPFVLPLTPLVSRGQGALAWAGFRAGDTLRLAARTARATLPAPRRLSAVETRHLAPALRSDRLRGGLLSWDGRLADDARLVTALARTAAARGARILTRVRALELTGSGARVRDETTGEEGVIRARAVVNASGVWAGDLVDGIRIRPSRGTHLVLRSDRLGPLPAGLHVPIPGETNRFVLVLPQDDGRVYVGLTDEPVDGDVPDVPEVPETDVGFLLDVLGSVLDVPVHREDVVGAFAGLRPLLDTAPSDRPGAAPRTADVSRRHAVLTSSEGVITVVGGKLTTYRRMAEDAVDAAVAARGLAAGPSPTAALPLVGAAAPHTLAGVRAPRRLVRRYGTEAPAVQALASREPCLAERVLPGHPVTGAELVWALRHEGALDEADLLDRRTRVGLVPEDRAAALGAVRDLVGEVTADPRLEHHHHHH
- soluble on expression in E. coli: not soluble

Sequence: MGSDKIHHHHHHMGEGLSVIGFDADDTLWQNESFFRLTEDKFAELLADFAEGAHLRERLLALETKNIGHYGFGIKGFMLSMIETAVEVTEGRVDGSVISKILEMGQDMLRHPIHLLPHVEETLGTLSDRYPLVLITKGDLLHQEQKLAASGLGDLFAGVEIVSAKLPSTYDTAFSVHGVGPKHAMMVGNSMKSDIRPALDAGAFAVYVPHGLTWELEHTETPVGHPRYHELPDLGGLIDLIETVTD
- soluble on expression in E. coli: not soluble

Sequence: MSLKTIAINQYGSADEFTMVDMPTTEPQADEVQVAIHAFSLNPMDIAGRMGALSSPFTDLWAFPLVLGWDFAGVITKMGKAVTGFNIGDAVFGSAAPAHAANNGTYGEFITVNTKELAHLPAGLSFDQAAALPIAGLTAYYGMKHNLKLQSGQKILVQGGAGGVGLFAIQIAKAFGAYVATTASANHRDLLTRLGADEVIDYHETDPAAVLHDYDAVFDTVGDIDTGLKVLKADGQLATIAGQPTDEQQHDQQKKVAFQFTQGSSQDLADLAQLVVSGQVKLTVATLPFSVANVIKGHRSIESRHTTGKIVIHVTEGHHHHHH
- soluble on expression in E. coli: not soluble

Sequence: KGTYLSEYANFAAALTEGKILLLADLRGFGETTDPAFYTDAKYWNREYRNAMVSMHIGRPIMGQRVVDILTLLDFCSEHEFLKGHPVKVFANGIYGPVAIHAAYLDERINSVEIKHSVKTWKEYIERPMQWDMYSNVLYGALKYYDLPDLIRLSNCPIRFAD
- soluble on expression in E. coli: not soluble

Sequence: MEGNFSNRVQDVIRLSREEALRLGHDYIGTEHLLLGLIREGEGIGAKILKNLKVDLFQLKQKIEENTHPKVPATQMGNVPLTKQAEKVLKITYLEAKICKSTIIGTEHLLLSILKGDDNIAAQILEQFGVTYDQVRDELMTITT
- soluble on expression in E. coli: not soluble

Sequence: MKKALPNTKVTVKLRRSNYKEEWYLIIESYPVYKRGSKRASRVVESINRTISTPIWDKSSIARILPDGTFNYKPKRDLNGIIQCRSTIDQEACIYADNVRKLRQHEYDSAILYTDKENEIAAQNERSEQDFIKYFNRIISTRHPNSSDSIIVNWRRVGELLKMYSQGQPIPFKAISVKLLEDIKMFLLRAPMGGNKKGTISQNTASTYFSILKAGLKQAFIDEYLTVDISAKVKGITNIEKPRVALTMNEVQMLVDTPCKDDVLKRAFLFSILTGLRHSDIQTLKWKQIQQTSKGTWQAVVIQQKTKRPDYKPVIQQALQLCGIRPDDDEALVFEGLTDASWISRPLKVWIEASGIKKHITF
- soluble on expression in E. coli: not soluble

Sequence: MSNIKKYIIDYDWKASIEIEIDHDVMTEEKLHQINNFWSDSEYRLNKHGSVLNAVLIMLAQHALLIAISSDLNAYGVVCEFDWNDGNGQEGWPSMDGSEGIRITDIDTSGIFDSDDMTIKAA
- soluble on expression in E. coli: soluble

Sequence: MGLIPPKWLERMVEAYRDPSLERAVYGEVLTRSDIERLLSETPLHPMAAAADYYARVIKKGVGSYIVNIYLAYTNVCVTRCTFCDFYVPPERRSSGYTHPPEHLGRVAGLARKRLGVREVHMVGGNDPELPLEYYEEAIREIKRVAPGVVLKAFTAEEIGFIAKATGNTPKEVLARFREAGLDALPGGGAEVLSEEVRKRIAPLKISSDEYLEIHRLAHSMGIRSNITLLYAHIEEPRHVAEHLYRIRRLQEETGGFISFIPIRFNPGKTPLSRHPEYVKKGDRGGLYDLRIVAASRLALLGAIDNIMAYWVSMGEKLAQAALSHGANDIGGTFYNESVISAASSLRKRKGMSPARLVFNIATAGWTPMERDTFYNYYPPRAEPPRLPWMQG
- soluble on expression in E. coli: not soluble

Sequence: VEVESFLVHPGDLLQLRCRLRDDVQSINWLRDGVQLAESNRTRITGEEVEVQDSVPADSGLYACVTSSPSGSDTTYFSVNVSDALP
- soluble on expression in E. coli: soluble

Sequence: MSIMSYTGGTVVAMAGDECVCIASDLRIGEQMTTIATDQKKVHKVTDKVYVGLAGFQSDARTVLEKIMFRKNLYELRENRNIKPQVLSEMISNLAYQHRFGSYFTEPLVAGLDDTNKPYICCMDTIGCVSAPRDFVAVGTGQEYLLGVCENFWRENMKPDELFEATAQSILSCLERDAASGWGAVVYTITKDKVNVSTIKARMD
- soluble on expression in E. coli: not soluble

Sequence: MARVTTGITSSHIPALGAAIQTGTSDNDYWGPVFKGYQPIRDWIKQPGNMPDVVILVYNDHASAFDMNIIPTFAIGCAETFKPADEGWGPRPVPDVKGHPDLAWHIAQSLILDEFDMTIMNQMDVDHGCTVPLSMIFGEPEEWPCKVIPFPVNVVTYPPPSGKRCFALGDSIRAAVESFPEDLNVHVWGTGGMSHQLQGPRAGLINKEFDLNFIDKLISDPEELSKMPHIQYLRESGSEGVELVMWLIMRGALPEKVRDLYTFYHIPASNTALGAMILQPEETAGTPLEPRKVMSGHSLAQA
- soluble on expression in E. coli: soluble

Sequence: MERILEKVRAKSEIPVYDKSIENVLSAILTTNDFWKIVDLSEEPLPLVADIIRILEEEGLVKISNGIEFTEKGNEFIKSYGIGAKDNSVCECCEGRGVSLKNYQDLLERFKEIVKNRPMPKHEYDQGFVTPECTISRIALMNSRGDLFNKDVLVLGDDDLTSIALMLSNLPKKIVVVDIDDRLINFIKEVAEQLNYKNIEVITLDLRKPLPEKYSRAFDTFITDPPETVYAVKTFIGRGISALKGERRAGYFGITRRESSLDKWREIQRTLINDFNVVITDIIRNFNHYVNWGYEEETRAWKLAPVKKKPEDIWYKSYMFRIETLKDSRGFEEEVDVGDELYNDAESSTT
- soluble on expression in E. coli: not soluble

Sequence: MGSDKIHHHHHHMYPKNTWYVACTPDEIATKPLGRQICGEKIVFYRARENQVAAVEDFCPHRGAPLSLGYVEDGNLVCGYHGLVMGCDGKTVSMPGQRVRGFPCNKTFAAVERYGFIWVWPGDQAQADPALIPHLEWAVSDEWAYGGGLFHIGCDYRLMIDNLMDLTHETYVHASSIGQKEIDEAPPVTTVTGDEVVTARHMENIMAPPFWRMALRGNGLADDVPVDRWQICRFTPPSHVLIEVGVAHAGKGGYHAEAQHKASSIVVDFITPESDTSIWYFWGMARNFAAHDQTLTDNIREGQGKIFSEDLEMLERQQQNLLAHPERNLLKLNIDAGGVQSRKVLERIIAQERAPQPQLIATSANPA
- soluble on expression in E. coli: not soluble

— the DeepSol protein solubility set
